# Laboratory results published in the supplement of paper PMC9170038.
# Tested on: MS2 coat protein
# Assay: apparent KD of MS2 coat protein; designed switch direction (-1 OFF switch, 1 ON switch): 1; higher = weaker reporter binding
# Summary of the method: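 RNA switches sharing common flanks were transcribed by stalled E. coli RNA polymerase on Illumina chips. A doubling series of SNAP-549-labelled MS2 coat protein, from 0.7 or 1.5 nM to 3 µM, was applied in Tris-HCl pH 7.5 buffer with KCl, MgCl2, BSA, DTT, tRNA and Tween-20. Each step lasted 0.8–1.5 h at the bottom of the series and 10–20 min at the top. Normalised cluster fluorescence was curve-fitted, giving apparent KD as the per-design median over clusters.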
# [1] = Eterna round: R95, input ligand: FMN 200 uM
# [2] = Eterna round: R95, input ligand: microRNA oligo, concentration not stated
# [3] = Eterna round: R95, input ligand: none
# [4] = input ligand: microRNA oligo, concentration not stated
Sequence,apparent KD of MS2 coat protein [1] [nM],apparent KD of MS2 coat protein [2] [nM],apparent KD of MS2 coat protein [3] [nM],apparent KD of MS2 coat protein (input ligand: FMN 200 uM) [nM],apparent KD of MS2 coat protein [4] [nM],apparent KD of MS2 coat protein (input ligand: none) [nM]
UACAAUCUAUCUCAGGAUAUCAUGUCAAAGACAUGAGGAUCACCCAUGUACCAGGAAACUGGUUAUGAGAAGGGAGAUAGAUUGU [Mat - Same State 2 - Mod - D24] (puzzle: Same State 2),136,35.4,77.9,–,–,–
UACAAUCUAUCUGAGGAUAUCAUGAAUUAAACAUGAGGAUCACCCAUGUGCAGGAAAACUGCAUAUGAGAAGGCAGAUAGAUUGU [salish99_ss2_r3_060] (puzzle: Same State 2),52.9,2.45,804,–,–,–
UACCAACAUAUAGAACAAGCGUGCUCGUCACAUGAGGAUCACCCAUGUCUAAACGCUGUACCUACAUCCUCAGCGCC [Eddiso] (puzzle: Sensor for hsa-mir-208a),23.3,24.6,22.8,–,–,–
"UACCGCGCAGAUGCGCAACAUGAGGAUCACCCAUGUGGCACACAGGAUAUCCUGAACAGCUAUUAGGAGAAGGGUGAAGGCCUC [Sotetelequ] (Eterna round: R96, puzzle: Same State NG 3)",–,–,–,128,75.3,78.3
"UAGAAACAUGAGGAUCACCCAUGUGGGUUAAACACAGGAUAUCACGCCAAAAGAAAAGCGUGAGAAGGGUGACCGA [Xeusisus] (Eterna round: R96, puzzle: Same State 1)",–,–,–,254,696,107
UAGAAACAUGAGGAUCACCCAUGUGGGUUAAACACAGGAUAUCACGCCAAAAGAAAAGCGUGAGAAGGGUGACCGA [Xeusisus] (puzzle: Same State 1),166,71.2,161,–,–,–
UAGAGAGGAAGCGAGGAUAUCGUGGGAGGGACAUGAGGAUCACCCAUGUAGGAUGUUGAGAGGAACGAGAAGGCGCAGGAAAGAA [JR_SS2_Sub075] (puzzle: Same State 2),67.1,78.1,110,–,–,–
UAGAGAGGAAGCGAGGAUAUCGUGUGAGGAACAUGAGGAUCACCCAUGUGUGAUGUUGAGAGAGACGAGAAGGCGCAGGAGAUUA [JR_SS2_Sub083] (puzzle: Same State 2),87.5,150,140,–,–,–
"UAGUGCAUUAGAGGAUAUUCUUACGACACGAGUAAGACAUGAGGAUCACCCAUGUCGUGGCAUGGGAAGAAGGCUGAUGUGCUA [Omei SS(NG)2 Bv7] (Eterna round: R96, puzzle: Same State NG 2)",–,–,–,14.4,11.1,34.7
"UAGUGCAUUAGAGGAUAUUCUUACGACACGAGUAAGACAUGAGGAUCACCCAUGUUGUGGCAUGGGAAGAAGGCUGAUGUGCUA [Omei SS(NG)2 Bv9] (Eterna round: R96, puzzle: Same State NG 2)",–,–,–,–,45.3,–
"UAUAAACAUGAGGAUCACCCAUGUAAUAAUAUGGGAGGAUAUCAGAUUUAAUUUAAUUUAUGAGAAGGCCUAAUAU [Mat - Same State 1 - Mod of Eli - D66] (Eterna round: R96, puzzle: Same State 1)",–,–,–,–,427,–
UAUAAACAUGAGGAUCACCCAUGUAAUAAUAUGGGAGGAUAUCAGAUUUAAUUUAAUUUAUGAGAAGGCCUAAUAU [Mat - Same State 1 - Mod of Eli - D66] (puzzle: Same State 1),34.3,491,825,–,–,–
"UAUGACUUACAAGGAUAUUAAUAACAUGAGGAUCACCCAUGUGGCUGUGAGAGUUAGAUAAGCUAUAAGAAGGUGUGUGUGUUU [JR_SSNG2_Sub094] (Eterna round: R96, puzzle: Same State NG 2)",–,–,–,62.7,133,173
UCAACUUUUUUUAGUGUGUUGCCAGGUUAACAUGAGGAUCACCCAUGUAAAGUAUAGUGGGAUUAAGUUCGUCUUAA [JR_SHM208A_Sub072] (puzzle: Sensor for hsa-mir-208a),77.2,83.6,93.9,–,–,–
UCAAGCGUUUGGCUCGUCUUAUGUUUUGUACAUGAGGAUCACCCAUGUUUUGUACGAUCCAGUUAGAUGGUAUUUUG [JR_SHM208A_Sub038] (puzzle: Sensor for hsa-mir-208a),39.8,121,54.6,–,–,–
"UCGAGCGUACUUGCAGACAUGAGGAUCACCCAUGUAAAUGGGAAGGAUAUGGUACCGUUUCGGUACCAGAAGGUCCUAAGUGUU [salish99_SSNG3_r04_303] (Eterna round: R96, puzzle: Same State NG 3)",–,–,–,616,146,493
"UCGAGCGUACUUGCAGACAUGAGGAUCACCCAUGUAAAUGGGAAGGAUAUGGUACCGUUUCGGUACCAGAAGGUCCUACGUGCU [salish99_SSNG3_r04_305] (Eterna round: R96, puzzle: Same State NG 3)",–,–,–,325,48.8,144
"UCGGGCGUACUUGCUGACAUGAGGAUCACCCAUGUCCUUGCGCAGGAUAUGGUUCCGUUUCGGUUCCAGAAGGUCCUGGCUGCU [salish99_SSNG3_r04_319] (Eterna round: R96, puzzle: Same State NG 3)",–,–,–,30.5,19.5,33.2
"UCGUCGACACAAAUUCGACAACAUGAGGAUCACCCAUGUCCACAGGAUAUCGGCAGCUUAUGCUCCGAGAAGGGUGGUUAGAUU [Beage Mod] (Eterna round: R96, puzzle: Same State NG 3)",–,–,–,435,664,605
"UCUAUUGUGGUAGGAUAUCUAGGAUAUGGGAAGAGCUAAGCUUGGAAGUCACUUCACCCAGAAGGAGAGAAGGACCACACACUU [pwkr ssNG2 2FMN + F9.8] (Eterna round: R96, puzzle: Same State NG 2)",–,–,–,564,121,225
UCUUGGUUUUUGCUCGUUUUUUGUGUUGAACAUGAGGAUCACCCAUGUAUUGUACGAUCCAAUUUAAUAAUGGUCCG [JMF 60] (puzzle: Sensor for hsa-mir-208a),42.6,33.6,50.2,–,–,–
UCUUGGUUUUUGCUCGUUUUUUGUGUUGAACAUGAGGAUCACCCAUGUAUUGUACGGUCCGGUUUAGUAAUGGUCCG [JMF 11] (puzzle: Sensor for hsa-mir-208a),24.8,15.1,25,–,–,–
UCUUGGUUUUUGCUCGUUUUUUGUGUUGAACAUGAGGAUCACCCAUGUAUUGUACGGUCCGGUUUAGUGAUGAUCCG [JMF 73] (puzzle: Sensor for hsa-mir-208a),39.1,31.3,45.6,–,–,–
UCUUGGUUUUUGCUCGUUUUUUGUGUUGAACAUGAGGAUCACCCAUGUAUUGUACGGUCCGGUUUGGUAAUGGUCCA [JMF 9] (puzzle: Sensor for hsa-mir-208a),55.7,41.8,63.6,–,–,–
